Assay results as given in PMC8409790 (mAbs, 2021).

B1: Human single-chain (sc) IL-23 (IL-12p40(23-328)-(GGGGS)x4-IL-23p19(21-189)-TEV-FLAG-8His) (ligand)
chain: IWELKKDVYVVELDWYPDAPGEMVVLTCDTPEEDGITWTLDQSSEVLGSGKTLTIQVKEFGDAGQYTCHKGGEVLSHSLLLLHKKEDGIWSTDILKDQKEPKNKTFLRCEAKNYSGRFTCWWLTTISTDLTFSVKSSRGSSDPQGVTCGAATLSAERVRGDNKEYEYSVECQEDSACPAAEESLPIEVMVDAVHKLKYENYTSSFFIRDIIKPDPPKNLQLKPLKNSRQVEVSWEYPDTWSTPHSYFSLTFCVQVQGKSKREKKDRVFTDKTSATVICRKNASISVRAQDRYYSSSWSEWASVPCSGGGGSGGGGSGGGGSGGGGSAVPGGSSPAWTQCQQLSQKLCTLAWSAHPLVGHMDLREEGDEETTNDVPHIQCGDGCDPQGLRDNSQFCLQRIHQGLIFYEKLLGSDIFTGEPSLLPDSPVGQLHASLLGLSQLLQPEGHHWETQQIPSLSPSQPWQRLLLRFKILRSLQAFVAVAARVFAHGAATLSP
B2: Human IL-23Rα protein (receptor)
chain: GITNINCSGHIWVEPATIFKMGMNISIYCQAAIKNCQPRKLHFYKNGIKERFQITRINKTTARLWYKNFLEPHASMYCTAECPKHFQETLICGKDISSGYPPDIPDEVTCVIYEYSGNMTCTWNAGKLTYIDTKYVVHVKSLETEEEQQYLTSSYINISTDSLQGGKKYLVWVQAANALGMEESKQLQIHLDDIVIPSAAVISRAETINATVPKTIIYWDSQTTIEKVSCEMRYKATTNQTWNVKEFDTNFTYVQQSEFYLEPNIKYVFQVRCQETGKRYWQPWSSLFFHKTPETVPQVTSKAFQHDTWNSGLTVASISTGHLTSDNRGDIG

Key:
Assay in all cases: SPR
Human IL-23Rα protein = target: B2
Human IL-12Rβ1-Fc = Human IL-12Rβ1-Fc (human, UniProt P42701)
[1] = target: B1

Row | Kd (Human IL-23Rα protein) | Kd (Human IL-12Rβ1-Fc) | KD with a saturating amount of tildrakizumab bound to IL-23 [1] | Binder
1 | 0.8 nM | 19 nM | – | B1
2 | – | – | 190 nM | B2
